This is an account of results in US20260347449 (published 2026).

The chains are these.
B1: C3I4 (antibody, V domains shown)
VH: DVQLVESGGGLVQPGGSLRLSCATSGFTLDYYAIGWFRQAPGKEREGVSCITGPDGSTHYADSVKGRFTISRDNAKNTVYLQMNSLKPEDTAVYYCAATAGLYGCGYGMDHWGKGTQVTVSS
B2: C3I8 (designed binder)
chain: DVQLVESGGGLVQPGGSLRLSCATSGFSFGVYDMSWVRQASGKGLEWVSGIDSGSNTAYADSVKVRFTISRDNAKNTLYLQMNNLKPEDTAVYYCALGRETDYIPVTDFRTQGTQVTVSS
B3: C3S6 (antibody, V domains shown)
VH: QVQLQESGGGLVQAGGSLRLSCAASGNIFVGHGMGWYRQAPGKEREFVAAIGYGAITNYADSVKGRFTISRDNAKNTVYLQMNSLKPEDTAVYYCAASSYYPPRYWYWGQGTLVTVSS
B4: C3I3 (antibody, V domains shown)
VH: DVQLVESGGGLVQPGGSLRLSCAASGFTLDNYAIAWFRQAPGKEREGVSCISSSRGSTAYEDSVKGRFTIARDNAKNTVYLQMNSLKPEDTAVYYCAARARGMCREFDYDYWGQGTQVTVSS
B5: C3I22 (antibody, V domains shown)
VH: DVQLVESGGGLVQPGGSLRLSCTASGFTFGVYAMSWVRQAPGKGLEWVSSIDSGVNTAYADSVKGRFTISRDNAINTVFLQMNSLKPEDTAVYHCALGRESDYEPVTGSWGQGTQVTVSS
B6: C3S8 (antibody, V domains shown)
VH: QVQLQESGGGLVQAGGSLRLSCAASGTIFPTDRMGWYRQAPGKEREFVATIDLGGTTNYADSVKGRFTISRDNAKNTVYLQMNSLKPEDTAVYYCAAAWEGPSRYGRHRYYSHRYWGQGTQVTVSS

Broadly, the Kd is the equilibrium constant for the complex coming apart.

For this assay, the target named is human C3 (human, UniProt P01024). In words: BLI. (Biolayer interferometry detects binding as a change in optical thickness at a sensor tip.)
B1 returned a Kd of 27 nM. On to B2, for which the affinity, expressed as Kd, was 4.8 nM. In turn, B3 registered a Kd of 20 nM. With B4, binding was put at a Kd of 17 nM. Take B5: the Kd is 3.9 nM. B6 displayed an equilibrium dissociation constant (Kd) of 14 nM.
